Tested on: AncSZ
Experiment: phosphorylation enrichment, bacterial display (enrichment ratio); higher = better substrate or ligand; peptides without Tyr show the background
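Note: 11-residue human phosphosite peptides and single-mutation variants displayed on the E. coli surface, counted by deep sequencing, each peptide's frequency after selection divided by its frequency in the unselected input library; frequency after pTyr selection over input frequency; kinase dosed for 20-30% of maximal phosphorylation in three min.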

Point of comparison: PLDGEHFTLQI [TP53_Y327_Y327H], phosphorylation enrichment 1.62. Against it:
- LNCIFYKDQTG [RS1_Y166_W163C_YF] — lower, 1.56
- KTKLGYSPLHQ [ANK1_Y735] — lower, 0.454
- QNTGVYFDLFG [PTPN11_Y62_D61V_YF] — higher, 2
- CKLYQYYLDHL [ATRX_Y1849] — higher, 1.74
- SDGHEYIFVDP [PDGFRB_Y579_YF] — higher, 2.08
- LHRAHYDLRHT [AHSG_Y314] — lower, 0.621
- ILGRYYERGSI [PAX5_Y73_T75R] — lower, 0.449
- EKLIQYCQSKG [AKR1B1_Y199] — lower, 0.52
- CRAVKYLQMVR [AVPR2_Y117_G122R] — lower, 0.882
- YGMQLYQNYMH [GRB14_Y347] — lower, 1.11
- PSSNLYFRCLT [CNGA3_Y168_W171C_YF] — lower, 1.5
- KMGNIYRTEYG [MRPL3_Y265] — lower, 0.621
- RKKLFYKADGE [SERPINC1_Y272_E269K] — lower, 0.624
- SVTCPYSPALN [TP53_Y126_T125P] — lower, 0.961
- RRIYSYRGHLW [VHL_Y112_H110Y] — lower, 1.45
- HLDRSYSFSFS [PEAR1_Y890_R885H_YF] — higher, 1.75
- TRSYDYMEGGD [FGF7_Y58] — lower, 1.02
- KMLEKYKERLN [TLK2_Y259] — lower, 0.634
- KEINDYVEKGT [SERPINA1_Y184_Q180E] — lower, 1.21
- TNGFTCGSSHQ [MANEA_Y331_Y331C] — lower, 0.608
- IENKLYGMSDP [RET_Y1062] — lower, 0.941
- EHTILYSNNST [KANSL1_Y223_T221I] — lower, 0.715
- QCTSHYPEHVC [SART3_Y541_D540H] — lower, 1.03
- YARECYSALPQ [SARS2_Y52_G51C] — lower, 1.16
- ARVANYHRDGP [CAT_Y386_Q387H] — lower, 0.523
- GSETPYVDRTP [ESS2_Y335] — lower, 0.711
- GSTLSYGRDGR [MATR3_Y158_P154S] — lower, 0.545
- KDFTIHNPNLL [VANGL1_Y290_Y290H] — lower, 0.698
- GRQGIYKENER [GPR143_Y231_T232K] — lower, 0.627
- IFHLSYLHNCE [PDE6B_Y227_YF] — lower, 0.985
- VIVRMYDYHVL [RPF2_Y109_G106V] — lower, 1.2
- PSSNLYYRCLT [CNGA3_Y168_W171C] — higher, 1.68

Biological target: EPHB1 (UniProt P54762)
Sequence (P54762 whole entry, looked up): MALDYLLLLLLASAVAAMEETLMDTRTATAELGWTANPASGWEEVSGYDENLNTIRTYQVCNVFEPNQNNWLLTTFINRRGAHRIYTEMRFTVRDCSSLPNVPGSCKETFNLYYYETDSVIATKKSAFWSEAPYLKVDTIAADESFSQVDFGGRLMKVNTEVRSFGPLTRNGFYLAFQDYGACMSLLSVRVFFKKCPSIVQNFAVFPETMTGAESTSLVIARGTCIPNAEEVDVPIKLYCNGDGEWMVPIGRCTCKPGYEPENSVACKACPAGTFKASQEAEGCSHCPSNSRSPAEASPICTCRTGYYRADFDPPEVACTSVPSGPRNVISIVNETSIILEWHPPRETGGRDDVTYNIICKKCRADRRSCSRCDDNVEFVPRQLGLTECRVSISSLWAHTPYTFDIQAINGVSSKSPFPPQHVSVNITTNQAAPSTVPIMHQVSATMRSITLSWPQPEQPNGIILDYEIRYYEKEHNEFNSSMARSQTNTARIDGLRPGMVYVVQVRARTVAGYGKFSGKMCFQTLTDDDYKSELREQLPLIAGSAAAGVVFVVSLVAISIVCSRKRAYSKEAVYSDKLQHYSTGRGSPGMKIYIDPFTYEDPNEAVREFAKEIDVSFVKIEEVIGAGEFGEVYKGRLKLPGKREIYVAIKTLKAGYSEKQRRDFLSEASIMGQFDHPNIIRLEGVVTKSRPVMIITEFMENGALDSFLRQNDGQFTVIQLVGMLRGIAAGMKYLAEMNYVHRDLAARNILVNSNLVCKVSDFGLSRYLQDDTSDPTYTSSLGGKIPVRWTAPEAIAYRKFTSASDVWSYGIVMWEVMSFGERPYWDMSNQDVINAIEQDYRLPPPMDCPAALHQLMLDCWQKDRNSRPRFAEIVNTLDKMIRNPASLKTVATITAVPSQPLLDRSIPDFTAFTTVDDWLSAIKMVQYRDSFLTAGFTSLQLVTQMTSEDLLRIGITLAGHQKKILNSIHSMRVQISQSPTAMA
Experiment: as above

Point of comparison: KDFTIHNPNLL [VANGL1_Y290_Y290H], phosphorylation enrichment 0.516. Against it:
- LNCIFYKDQTG [RS1_Y166_W163C_YF] — higher, 1.1
- KTKLGYSPLHQ [ANK1_Y735] — lower, 0.296
- QNTGVYFDLFG [PTPN11_Y62_D61V_YF] — higher, 2.93
- CKLYQYYLDHL [ATRX_Y1849] — higher, 2.18
- SDGHEYIFVDP [PDGFRB_Y579_YF] — lower, 0.478
- LHRAHYDLRHT [AHSG_Y314] — higher, 0.668
- ILGRYYERGSI [PAX5_Y73_T75R] — lower, 0.493
- EKLIQYCQSKG [AKR1B1_Y199] — lower, 0.487
- CRAVKYLQMVR [AVPR2_Y117_G122R] — lower, 0.499
- YGMQLYQNYMH [GRB14_Y347] — higher, 9.11
- PSSNLYFRCLT [CNGA3_Y168_W171C_YF] — higher, 0.828
- KMGNIYRTEYG [MRPL3_Y265] — lower, 0.488
- PLDGEHFTLQI [TP53_Y327_Y327H] — higher, 0.577
- RKKLFYKADGE [SERPINC1_Y272_E269K] — lower, 0.34
- SVTCPYSPALN [TP53_Y126_T125P] — higher, 0.572
- RRIYSYRGHLW [VHL_Y112_H110Y] — higher, 1.17
- HLDRSYSFSFS [PEAR1_Y890_R885H_YF] — higher, 0.638
- TRSYDYMEGGD [FGF7_Y58] — higher, 0.58
- KMLEKYKERLN [TLK2_Y259] — lower, 0.381
- KEINDYVEKGT [SERPINA1_Y184_Q180E] — lower, 0.513
- TNGFTCGSSHQ [MANEA_Y331_Y331C] — lower, 0.451
- IENKLYGMSDP [RET_Y1062] — lower, 0.506
- EHTILYSNNST [KANSL1_Y223_T221I] — lower, 0.456
- QCTSHYPEHVC [SART3_Y541_D540H] — lower, 0.458
- YARECYSALPQ [SARS2_Y52_G51C] — higher, 0.712
- ARVANYHRDGP [CAT_Y386_Q387H] — lower, 0.309
- GSETPYVDRTP [ESS2_Y335] — lower, 0.408
- GSTLSYGRDGR [MATR3_Y158_P154S] — lower, 0.339
- GRQGIYKENER [GPR143_Y231_T232K] — lower, 0.322
- IFHLSYLHNCE [PDE6B_Y227_YF] — higher, 0.589
- VIVRMYDYHVL [RPF2_Y109_G106V] — higher, 2.24
- PSSNLYYRCLT [CNGA3_Y168_W171C] — higher, 1.23

Biological target: FGFR1 (UniProt P11362)
Sequence (P11362 whole entry, looked up): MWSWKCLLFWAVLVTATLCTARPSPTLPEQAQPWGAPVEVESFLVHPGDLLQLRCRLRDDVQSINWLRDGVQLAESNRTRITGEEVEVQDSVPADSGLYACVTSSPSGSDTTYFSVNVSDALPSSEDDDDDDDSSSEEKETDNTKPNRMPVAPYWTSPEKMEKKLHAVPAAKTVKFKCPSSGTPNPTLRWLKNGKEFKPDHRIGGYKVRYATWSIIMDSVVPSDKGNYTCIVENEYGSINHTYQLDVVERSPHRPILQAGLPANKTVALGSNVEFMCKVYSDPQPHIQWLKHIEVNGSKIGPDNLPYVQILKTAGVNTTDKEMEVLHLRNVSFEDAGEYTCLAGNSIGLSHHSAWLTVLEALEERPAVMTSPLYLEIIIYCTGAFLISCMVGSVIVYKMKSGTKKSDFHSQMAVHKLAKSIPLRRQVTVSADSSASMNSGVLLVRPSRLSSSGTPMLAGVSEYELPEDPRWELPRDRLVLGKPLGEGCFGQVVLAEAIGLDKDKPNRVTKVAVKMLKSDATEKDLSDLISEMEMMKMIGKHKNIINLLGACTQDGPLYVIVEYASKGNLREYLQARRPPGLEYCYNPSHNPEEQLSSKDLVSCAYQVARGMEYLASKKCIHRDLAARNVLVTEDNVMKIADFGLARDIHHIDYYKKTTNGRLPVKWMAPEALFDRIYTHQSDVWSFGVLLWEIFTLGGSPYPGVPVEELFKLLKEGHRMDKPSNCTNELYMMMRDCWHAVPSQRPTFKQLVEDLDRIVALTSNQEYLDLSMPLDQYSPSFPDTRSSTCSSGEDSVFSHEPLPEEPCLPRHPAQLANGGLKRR
Experiment: as above

Point of comparison: CKLYQYYLDHL [ATRX_Y1849], phosphorylation enrichment 1.44. Against it:
- LNCIFYKDQTG [RS1_Y166_W163C_YF] — lower, 0.563
- KTKLGYSPLHQ [ANK1_Y735] — lower, 0.31
- QNTGVYFDLFG [PTPN11_Y62_D61V_YF] — higher, 12.8
- SDGHEYIFVDP [PDGFRB_Y579_YF] — higher, 1.75
- LHRAHYDLRHT [AHSG_Y314] — lower, 0.707
- ILGRYYERGSI [PAX5_Y73_T75R] — lower, 0.466
- EKLIQYCQSKG [AKR1B1_Y199] — lower, 0.44
- CRAVKYLQMVR [AVPR2_Y117_G122R] — lower, 0.436
- YGMQLYQNYMH [GRB14_Y347] — lower, 0.888
- PSSNLYFRCLT [CNGA3_Y168_W171C_YF] — lower, 1.19
- KMGNIYRTEYG [MRPL3_Y265] — lower, 0.413
- PLDGEHFTLQI [TP53_Y327_Y327H] — lower, 0.587
- RKKLFYKADGE [SERPINC1_Y272_E269K] — lower, 0.528
- SVTCPYSPALN [TP53_Y126_T125P] — lower, 0.505
- RRIYSYRGHLW [VHL_Y112_H110Y] — lower, 1.2
- HLDRSYSFSFS [PEAR1_Y890_R885H_YF] — lower, 0.841
- TRSYDYMEGGD [FGF7_Y58] — lower, 0.486
- KMLEKYKERLN [TLK2_Y259] — lower, 0.46
- KEINDYVEKGT [SERPINA1_Y184_Q180E] — lower, 0.558
- TNGFTCGSSHQ [MANEA_Y331_Y331C] — lower, 0.46
- IENKLYGMSDP [RET_Y1062] — lower, 0.585
- EHTILYSNNST [KANSL1_Y223_T221I] — lower, 0.461
- QCTSHYPEHVC [SART3_Y541_D540H] — lower, 0.727
- YARECYSALPQ [SARS2_Y52_G51C] — higher, 2.42
- ARVANYHRDGP [CAT_Y386_Q387H] — lower, 0.519
- GSETPYVDRTP [ESS2_Y335] — lower, 0.488
- GSTLSYGRDGR [MATR3_Y158_P154S] — lower, 0.389
- KDFTIHNPNLL [VANGL1_Y290_Y290H] — lower, 0.424
- GRQGIYKENER [GPR143_Y231_T232K] — lower, 0.441
- IFHLSYLHNCE [PDE6B_Y227_YF] — lower, 0.494
- VIVRMYDYHVL [RPF2_Y109_G106V] — higher, 3.25
- PSSNLYYRCLT [CNGA3_Y168_W171C] — higher, 1.9

Biological target: FGFR3 (UniProt P22607)
Sequence (P22607 whole entry, looked up): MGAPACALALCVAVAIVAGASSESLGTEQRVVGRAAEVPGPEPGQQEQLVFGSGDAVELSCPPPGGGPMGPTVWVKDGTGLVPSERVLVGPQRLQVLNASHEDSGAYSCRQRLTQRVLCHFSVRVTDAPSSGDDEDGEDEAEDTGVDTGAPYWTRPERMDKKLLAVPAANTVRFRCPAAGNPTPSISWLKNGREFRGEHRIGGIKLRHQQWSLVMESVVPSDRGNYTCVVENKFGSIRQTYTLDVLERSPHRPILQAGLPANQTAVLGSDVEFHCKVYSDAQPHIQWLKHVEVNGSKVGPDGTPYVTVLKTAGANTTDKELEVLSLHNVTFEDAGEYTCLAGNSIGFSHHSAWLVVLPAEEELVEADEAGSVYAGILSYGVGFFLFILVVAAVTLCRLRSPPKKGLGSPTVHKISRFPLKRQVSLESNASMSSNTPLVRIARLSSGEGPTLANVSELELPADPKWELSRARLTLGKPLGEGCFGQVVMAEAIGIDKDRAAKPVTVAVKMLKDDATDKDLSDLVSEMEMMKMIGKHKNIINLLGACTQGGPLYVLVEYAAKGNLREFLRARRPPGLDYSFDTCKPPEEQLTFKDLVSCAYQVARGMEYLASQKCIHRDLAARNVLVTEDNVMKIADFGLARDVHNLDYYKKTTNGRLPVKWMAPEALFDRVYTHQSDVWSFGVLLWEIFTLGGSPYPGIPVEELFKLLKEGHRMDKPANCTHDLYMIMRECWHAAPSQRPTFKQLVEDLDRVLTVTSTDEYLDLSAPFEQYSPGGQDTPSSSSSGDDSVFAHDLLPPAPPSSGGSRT
Experiment: as above

Point of comparison: SVTCPYSPALN [TP53_Y126_T125P], phosphorylation enrichment 0.679. Against it:
- LNCIFYKDQTG [RS1_Y166_W163C_YF] — higher, 1.06
- KTKLGYSPLHQ [ANK1_Y735] — lower, 0.385
- QNTGVYFDLFG [PTPN11_Y62_D61V_YF] — higher, 11.6
- CKLYQYYLDHL [ATRX_Y1849] — higher, 1.54
- SDGHEYIFVDP [PDGFRB_Y579_YF] — higher, 1.37
- LHRAHYDLRHT [AHSG_Y314] — higher, 1.1
- ILGRYYERGSI [PAX5_Y73_T75R] — lower, 0.552
- EKLIQYCQSKG [AKR1B1_Y199] — lower, 0.493
- CRAVKYLQMVR [AVPR2_Y117_G122R] — lower, 0.527
- YGMQLYQNYMH [GRB14_Y347] — higher, 0.909
- PSSNLYFRCLT [CNGA3_Y168_W171C_YF] — higher, 1.03
- KMGNIYRTEYG [MRPL3_Y265] — lower, 0.526
- PLDGEHFTLQI [TP53_Y327_Y327H] — higher, 0.885
- RKKLFYKADGE [SERPINC1_Y272_E269K] — lower, 0.473
- RRIYSYRGHLW [VHL_Y112_H110Y] — higher, 0.725
- HLDRSYSFSFS [PEAR1_Y890_R885H_YF] — higher, 0.897
- TRSYDYMEGGD [FGF7_Y58] — higher, 0.731
- KMLEKYKERLN [TLK2_Y259] — lower, 0.557
- KEINDYVEKGT [SERPINA1_Y184_Q180E] — lower, 0.632
- TNGFTCGSSHQ [MANEA_Y331_Y331C] — lower, 0.545
- IENKLYGMSDP [RET_Y1062] — higher, 0.689
- EHTILYSNNST [KANSL1_Y223_T221I] — lower, 0.468
- QCTSHYPEHVC [SART3_Y541_D540H] — lower, 0.677
- YARECYSALPQ [SARS2_Y52_G51C] — higher, 1.57
- ARVANYHRDGP [CAT_Y386_Q387H] — lower, 0.394
- GSETPYVDRTP [ESS2_Y335] — lower, 0.553
- GSTLSYGRDGR [MATR3_Y158_P154S] — lower, 0.466
- KDFTIHNPNLL [VANGL1_Y290_Y290H] — lower, 0.561
- GRQGIYKENER [GPR143_Y231_T232K] — lower, 0.428
- IFHLSYLHNCE [PDE6B_Y227_YF] — higher, 0.856
- VIVRMYDYHVL [RPF2_Y109_G106V] — higher, 2.12
- PSSNLYYRCLT [CNGA3_Y168_W171C] — higher, 1.87

From the supplement of paper PMC10065799, “High-throughput profiling of sequence recognition by tyrosine kinases and SH2 domains using bacterial peptide display” (eLife, 2023)
